The values that follow come from patent publication US9301997B2, “Method of vaccination for limiting articular inflammation in rheumatoid arthritis and multiple sclerosis by administering IL-23 peptides” (PEPTINOV SAS, priority 2009, dated 2016).

In test [1] the target is T1, human IL-23 (Homo sapiens, UniProt Q9NPF7).
T1 sequence (Q9NPF7 20-189): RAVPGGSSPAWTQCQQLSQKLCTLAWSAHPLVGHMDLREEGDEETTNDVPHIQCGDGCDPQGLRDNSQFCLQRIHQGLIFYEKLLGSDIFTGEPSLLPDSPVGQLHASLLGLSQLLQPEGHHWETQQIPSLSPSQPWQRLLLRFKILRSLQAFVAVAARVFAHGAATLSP
T1 sequence (P29460 23-328 partner): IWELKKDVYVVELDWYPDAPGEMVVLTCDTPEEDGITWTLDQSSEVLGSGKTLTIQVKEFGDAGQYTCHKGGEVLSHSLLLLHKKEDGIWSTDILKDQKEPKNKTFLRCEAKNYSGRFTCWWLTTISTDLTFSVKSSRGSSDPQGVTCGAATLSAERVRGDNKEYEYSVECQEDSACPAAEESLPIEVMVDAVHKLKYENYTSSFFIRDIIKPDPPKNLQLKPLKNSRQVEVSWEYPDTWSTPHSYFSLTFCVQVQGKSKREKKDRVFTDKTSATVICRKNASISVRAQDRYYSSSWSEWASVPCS
As to the kind of experiment: Neutralization assay for human IL-23 (IL-17 secretion by purified mouse splenocytes). To be noted: for Neutralization of the biological activity of human IL-23: purified IgG of immunized rabbits, result in words; for Average % neutralization, SD: purified rabbit antibodies at a dilution of 1/20, 1 ng/mL bioactive hIL-23. The class given is cell-based. The protocol:
The neutralization capacity of the purified total IgG fraction derived from the 4 immunized rabbits of example 1 was then tested in a neutralization assay for human IL-23. The test is based on the fact that purified mouse splenocytes secrete IL-17 in a dose dependent fashion, in response to the stimulation with bioactive human IL-23 (cf. FIG. 2). On the x-axis one can see the various dilutions of the IgG tested and on the y-axis the production of IL-17 as an optical density value. One sees that the IgG fraction of rabbits immunized against the peptide neutralize the biological activity of human IL-23 in a dose-dependent fashion. Each bar represents the mean of the tests performed with the 4 purified antibodies; the standard deviation is also indicated. The experimental conditions comprise two negative controls (no human IL-23 and no inhibitor) and a positive control with an anti-hIL-23 neutralizing antibody sold from the company R&D Systems (# ref: AF1716).
(§1) Four New Zealand rabbits were immunized with the cyclised peptide Y-C-KGE PAL LPD SP-C derived from the murine IL-23, similarly as in the protocol described in Example 1. The peptide was coupled with KLH via BDB and a supplementary tyrosine. The sera of the animals were purified by affinity column against protein A and the purified antibodies were tested in ELISA and in neutralisation assays. For ELISA, plates were coated either with murine or with human IL-23 and individual sera were tested at different dilutions to determine the Titer50. The titer corresponds to the dilution corresponding yielding an OD value at 50% of the maximal OD score (obtained for the smallest dilution, 1/50e). In parallel, different dilutions of the purified rabbit antibodies were tested on IL-23 neutralisation assays, similarly as in Examples 2, 3, and 4. Table 1 presents the average neutralisation obtained for the 4 purified antibodies rabbit at a dilution of 1/20 and in the presence of 1 ng/mL of bioactive mIL-23 or hIL-23.

Test [2] deals with T2, murine IL-23 (Mus musculus, UniProt Q9EQ14).
T2 sequence (Q9EQ14 22-196): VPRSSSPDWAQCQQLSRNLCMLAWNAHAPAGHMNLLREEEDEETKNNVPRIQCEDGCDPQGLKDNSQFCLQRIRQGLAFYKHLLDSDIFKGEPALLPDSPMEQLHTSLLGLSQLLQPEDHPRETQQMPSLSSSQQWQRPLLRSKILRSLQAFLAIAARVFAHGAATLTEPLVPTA
T2 sequence (P43432 23-335 partner): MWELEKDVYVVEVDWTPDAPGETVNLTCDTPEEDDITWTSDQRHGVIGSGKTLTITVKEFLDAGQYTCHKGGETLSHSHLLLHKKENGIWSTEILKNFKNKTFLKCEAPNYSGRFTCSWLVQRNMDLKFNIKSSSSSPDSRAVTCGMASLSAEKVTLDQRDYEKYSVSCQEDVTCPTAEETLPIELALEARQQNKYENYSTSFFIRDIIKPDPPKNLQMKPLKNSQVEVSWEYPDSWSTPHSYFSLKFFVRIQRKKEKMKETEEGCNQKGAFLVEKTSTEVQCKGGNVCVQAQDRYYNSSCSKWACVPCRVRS
As to the kind of experiment: Neutralization assay for murine IL-23 (IL-17 secretion by purified mouse splenocytes). The class given is cell-based. As to conditions: purified IgG of immunized rabbits, result in words. From the text:
The same IgG fraction from 4 immunized rabbits used in example 2 is used for a test of neutralization of the murine IL-23 cytokine. The test for murine IL-23 is based on the fact that purified mouse splenocytes secrete IL-17 in a dose dependent fashion, in response to the stimulation with bioactive […] IL-23 (cf. FIG. 3). One sees that the IgG fraction of rabbits immunized against the human IL-23 peptide can neutralize the biological activity of murine IL-23 in a dose-dependent fashion. Each bar represents the mean of the tests performed with the 4 purified antibodies; the standard deviation is also indicated. There are two negative controls (no mouse IL-23 and no inhibitor) and a positive control with an anti-murine IL-23 neutralizing antibody sold from the company R&D Systems (# ref: AF1619).
(§2) Four New Zealand rabbits were immunized with the cyclised peptide Y-C-KGE PAL LPD SP-C derived from the murine IL-23, similarly as in the protocol described in Example 1. The peptide was coupled with KLH via BDB and a supplementary tyrosine. The sera of the animals were purified by affinity column against protein A and the purified antibodies were tested in ELISA and in neutralisation assays. For ELISA, plates were coated either with murine or with human IL-23 and individual sera were tested at different dilutions to determine the Titer50. […]

Test [3] relates to experimental autoimmune encephalomyelitis. The test can be described thus: Experimental autoimmune encephalomyelitis mouse model of multiple sclerosis, vaccination. The class given is in vivo. As to conditions: C57BL/6 mice, 100 μg/animal s.c. 4 times, 30 days follow-up, versus carrier and PBS groups, p=0.0003. The protocol:
The experimental autoimmune encephalomyelitis in mice is a well-known model of multiple sclerosis. Three groups of 12 C57BL/6 mice were injected 4-times (s.c.) either with 1/100 μg/animal of the same peptide derivative of murine IL-23 as in example 9 coupled with KLH and emulsioned in CFA for the initial immunization and IFA (ISA51) for the subsequent boosts, or with 2/the carrier protein prepared in the same conditions, or with 3/PBS alone. The injections took pace at day 0, 15, 30 and 45.
To induce the experimental disease, mice were immunized (s.c.) at two sites with 200 μg of MOG peptide 35-55 in […] of Complete Freund's Adjuvant (CFA) at day 60. On the same day and after two days, mice were injected (i.p.) with, respectively 75 and 200 ng/mouse, of pertussis toxin (List Biological Laboratories). The mice were then assessed daily for clinical signs of EAE according to the following well-known scoring method (Sinha et al., J. Immunol., 2008): 0, normal; 0.5, limp tail; 1, tail paralysis; 2, mono or paraparesis of the hind limbs; 3, mono or paraplegia of the hind limbs; 4, paraplegia of the forelimb; 5, moribund condition or death. The follow-up was done on a period of 30 days as shown (cf. FIG. 7).

The test system of test [4] is collagen-induced arthritis. The test can be described thus: Collagen-induced arthritis mouse model of rheumatoid arthritis, vaccination. The class given is in vivo. As to conditions: DBA/1 mice. From the text:
The collagen-induced arthritis is a well-known model of rheumatoid arthritis, which reproduces the main features characterizing the human disease. The experimental disease is induced in the animal by two successive injections of type II bovine collagen in the tail. Clinical signs of disease occur a few days later, principally marked by a severe articular inflammation and the joint destruction. The articular inflammation can be quantified and reported as clinical scores by the person of the art: a score from 0 (no clinical sign) to 4 (total inflammation) is given for each articulation of each mouse. Groups of 10 mice are compared by the mean value of the scores obtained on […]. Similarly, the articular inflammation and destruction can be observed on histological sections of joints and be reported as histological scores by the person of the art.
DBA/1 mice (n=10 per treatment group) were vaccinated two weeks before the first injection of collagen either with the cyclised peptide derived from mIL23: C-DSD IFK GEP ALL PDS PME QL-C-Y (coupled with KLH via BDB and an additional tyrosine on the C-terminus), or with a control made of KLH alone, or with PBS alone. The injected dose in each mice corresponded to 100 μg of coupled peptide for the peptide group, and to 100 μg of KLH alone for the KLH control group, all in complete Freund's adjuvant. […]

Test [5] deals with T2, murine IL-23. The test can be described thus: ELISA of purified rabbit antibodies on plates coated with murine IL-23. The class given is binding. To be noted: antibodies of immunized rabbits, result in words. The protocol:
(§3) Specific-pathogen-free New Zealand rabbits (n=4) are immunized with 100 μg of a peptide derivative of human IL-23 by five immunizations in CFA/IFA at day 0, 14, 28, 56 and 70. The peptide, whose sequence is C-GSD IFT GEP SLL PDS PVG QL-C-Y, was coupled to KLH with BDB. The sera from immunized rabbits were taken at day 82 after initial immunization, and the antibodies were purified by affinity chromatography against protein A. The purified antibodies were tested by ELISA at various dilutions and on a plate coated either by human IL-23 or by murine IL-23 (cf. FIG. 1). The mean OD value of the […] purified sera is given at the various dilutions for the ELISA tests against murine IL-23 (dotted line) and against human IL-23 (regular line).
as §2

Test [6] deals with T1, human IL-23. The test can be described thus: ELISA of purified rabbit antibodies on plates coated with human IL-23. The test is classed as binding. To be noted: for Recognition of human IL-23 by antibodies raised against the peptide (ELISA): antibodies of immunized rabbits, result in words; for Average Titers50 (ELISA), SD: purified antibodies of rabbits immunized with the KLH-coupled peptide, plate coated with human IL-23, dilution yielding 50% of maximal OD. The protocol: as §3, §1
A general note: An ELISA detects its analyte on a solid surface through an enzyme-linked reagent.

Test [7] deals with T2, murine IL-23. As to the kind of experiment: Auto-antibody response against murine IL-23 in immunized mice (serum ELISA). The test is classed as in vivo. To be noted: OF1 mice immunized intra-muscularly, 100 μg/injection, sera tested at 1/500. The protocol: A peptide of murine IL-23 is coupled to KLH in the presence of a coupling agent (BDB). The peptide has been cyclised thanks to the addition of 2 cysteine residues coupled to BDB through an additional tyrosine; its amino-acid sequence is: C-DSD IFK GEP ALL PDS PME QL-C-Y. The vaccinal composition is injected intra-muscularly […] in ten (10) OF1 mice, at a dose of 100 μg/injection once every 2 weeks at days 0, 15, 30, 45. The sera of the animals are taken after the boosts at days 20, 38, 60 and 80 and are tested by ELISA at a dilution of 1/500 and on a coating of murine IL-23. The ELISA results are given as optical density (OD450nm) values. FIG. 5 presents the mean OD450nm value obtained at each time-point for the 10 mice tested. The grey line represents the response of mice immunized with the peptide derivative of IL-23 (triangles). The dotted lines represents the response of control mice immunized with the vehicle (empty grey diamonds), and control mice immunized with the carrier protein only (empty grey squares).

With C-DSD IFK GEP ALL PDS PME QL-C, the “Neutralization of the biological activity of human IL-23” value in test [1] was “cross-neutralize hIL-23”. Further, the “Neutralization of the biological activity of murine IL-23” value in test [2] was “can neutralize mIL-23”.
Take C-DSD IFK GEP ALL PDS PME QL-C-Y: the “Clinical signs of EAE (disease activity score)” value in test [3] was “statistically significant lower disease activity than the two control groups”. Also, in test [4] (100 μg coupled peptide in CFA plus boosts in IFA, followed until day 80, versus KLH alone or PBS), the “Clinical scores of articular inflammation” value is recorded as “statistically significant protection at the late stage of disease”. The “Histological scores of articular inflammation and destruction” value in test [4] (histological sections of joints) was “limits the extent of both the articular inflammation and destruction at the histological level”.
For “C-GSD IFT GEP SLL PDS PVG QL-C-Y (GSDIFTGEPSLLPDSPVGQL; not fully specified; terminal cysteines and C-terminal tyrosine; listed as Homo Sapiens) [peptide derivative of human IL-23 subunit p19, region Gly105 to Leu124, with two terminal cysteines and a C-terminal tyrosine]”, the “Neutralization of the biological activity of human IL-23” value in test [1] is listed as “could neutralize the biological activity of the human cytokine”. Further, in test [5], the “Recognition of murine IL-23 by antibodies raised against the peptide (ELISA)” value is on record as “could recognize the murine IL-23 cytokine”. The “Recognition of human IL-23 by antibodies raised against the peptide (ELISA)” value in test [6] is “could generate antibodies recognizing the whole human IL-23 cytokine”. The “Neutralization of the biological activity of murine IL-23” value in test [2] is given as “neutralize its biological activity”.
As for “C-LPD SP-C-Y (CLPDSPCY; sub-sequence of seq ID NO2 with N-terminal cystein and C-terminal cystein and tyrosin) [CLPDSPC-Y, peptide 2 derived from hIL-23]”, in test [1], the “Average % neutralization, SD” value was determined as 39 ± 11%. Besides, the “Average Titers50 (ELISA), SD” value in test [6] is 2287 ± 175.
Turning to “CTGEPSC (sub-sequence of seq ID NO2 with C-terminal and N-terminal cystein) [C-TGE PS-C, peptide 1 derived from hIL-23]”, in test [1], the “Average % neutralization, SD” value is listed as 35 ± 7%. In test [6], the “Average Titers50 (ELISA), SD” value turned out to be 1758 ± 153.
As to “DSD IFK GEP ALL PDS PME QL (DSDIFKGEPALLPDSPMEQL; Mus Musculus) [peptide derivative of mouse IL-23p19]”, in test [5], the “Recognition of murine IL-23 by antibodies raised against the peptide (ELISA)” value is “could recognize both the murine and human IL-23 cytokines”. For the same substance, in test [7], the “Generation of anti-mIL-23 antibodies in mice” value is on record as “anti-mIL-23 Abs could be generated in mice”. Moreover, the “Recognition of human IL-23 by antibodies raised against the peptide (ELISA)” value in test [6] was “could recognize both the murine and human IL-23 cytokines”.
